Measurements reported in the supplement of paper PMC7125110.
± gives the standard error. For some assays here: Variants at the floor of the assay were thinned out.

B1: glmS ribozyme (parent)
chain: AUAAAAGCGCCAGAACUACAGAAAUGUAGUUGACGAGGAGGAGGUUUAUCGAAUUUUCGGCGGAUGCCUCCAAA

Legend:
Details in all cases: with glucosamine-6-phosphate
[1] = variants of: B1; assay: self-cleavage kobs at 40 uM GlcN6P; higher = faster cleavage; RNA array
How it was run: (§1)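 Weighted Michaelis–Menten fits across concentrations supplied kcat and KM, based on kobs from one- or two-exponential decay fits to normalised per-tile medians. The data came from barcoded ribozyme variants transcribed in situ by E. coli RNA polymerase on sequenced MiSeq chips and tracked at 37 °C by a hybridised Cy3 probe. Glucosamine-6-phosphate (40 μM to 10 mM) in HEPES/KCl/Mg(OAc)2 buffer was flowed in.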

[2] = variants of: B1; assay: self-cleavage kobs at 10000 uM GlcN6P; higher = faster cleavage; RNA array
How it was run: as §1

[3] = variants of: B1; assay: kcat; higher = faster cleavage; RNA array
How it was run: as §1

[4] = variants of: B1; assay: self-cleavage kobs at 160 uM GlcN6P; higher = faster cleavage; RNA array
How it was run: as §1

[5] = variants of: B1; assay: self-cleavage kobs at 640 uM GlcN6P; higher = faster cleavage; RNA array
How it was run: as §1

[6] = variants of: B1; assay: self-cleavage kobs at 2500 uM GlcN6P; higher = faster cleavage; RNA array
How it was run: as §1

[7] = variants of: B1; assay: KM; higher = weaker cofactor use; RNA array
How it was run: as §1

## A6G C8U U57C C67U
[1]
  self-cleavage kobs at 40 uM GlcN6P: < 1e-05 s⁻¹
[2]
  self-cleavage kobs at 10000 uM GlcN6P: < 1e-05 s⁻¹

## U69A C71U
[3]
  kcat: 7.42e-05 ± 1.9e-05 s⁻¹
[4]
  self-cleavage kobs at 160 uM GlcN6P: 3.69e-05 ± 1.3e-05 s⁻¹
[5]
  self-cleavage kobs at 640 uM GlcN6P: 9.28e-05 ± 1.6e-05 s⁻¹
[6]
  self-cleavage kobs at 2500 uM GlcN6P: 8.39e-05 ± 1.6e-05 s⁻¹
[2]
  self-cleavage kobs at 10000 uM GlcN6P: 4.27e-05 ± 1.7e-05 s⁻¹

## A6G A15G G66U C70U
[1]
  self-cleavage kobs at 40 uM GlcN6P: < 1e-05 s⁻¹

## A6C U30G G51A U65G
[1]
  self-cleavage kobs at 40 uM GlcN6P: < 1e-05 s⁻¹
[2]
  self-cleavage kobs at 10000 uM GlcN6P: < 1e-05 s⁻¹

## G13U A48C
[7]
  KM: 3030 ± 610 µM

## A6G C11A C50G C58U
[1]
  self-cleavage kobs at 40 uM GlcN6P: 0.000139 ± 2.5e-05 s⁻¹

## G66U C70G
[3]
  kcat: 0.000127 ± 1.1e-05 s⁻¹
[7]
  KM: 550 ± 180 µM
[4]
  self-cleavage kobs at 160 uM GlcN6P: 3.86e-05 ± 1.7e-05 s⁻¹
[5]
  self-cleavage kobs at 640 uM GlcN6P: 5.98e-05 ± 1.4e-05 s⁻¹
[6]
  self-cleavage kobs at 2500 uM GlcN6P: 0.000112 ± 1.7e-05 s⁻¹
[2]
  self-cleavage kobs at 10000 uM GlcN6P: 0.000117 ± 1.9e-05 s⁻¹

## U69G C71U
[3]
  kcat: 4.96e-05 ± 1.4e-05 s⁻¹
[4]
  self-cleavage kobs at 160 uM GlcN6P: 7.88e-05 ± 2.1e-05 s⁻¹
[5]
  self-cleavage kobs at 640 uM GlcN6P: 9.65e-05 ± 2.5e-05 s⁻¹
[6]
  self-cleavage kobs at 2500 uM GlcN6P: 6.25e-05 ± 1.2e-05 s⁻¹
[2]
  self-cleavage kobs at 10000 uM GlcN6P: 3.11e-05 ± 9.4e-06 s⁻¹

## A6C U30G C50G U56C C68A
[1]
  self-cleavage kobs at 40 uM GlcN6P: 7.1e-05 ± 2.5e-05 s⁻¹
[2]
  self-cleavage kobs at 10000 uM GlcN6P: 0.000356 ± 0.00016 s⁻¹

## A6C A15U G40A
[1]
  self-cleavage kobs at 40 uM GlcN6P: < 1e-05 s⁻¹
[6]
  self-cleavage kobs at 2500 uM GlcN6P: < 1e-05 s⁻¹
[2]
  self-cleavage kobs at 10000 uM GlcN6P: < 1e-05 s⁻¹

## A1C U2A A3U G7A C8G G9C C10G A12C G13A A14G
[1]
  self-cleavage kobs at 40 uM GlcN6P: 6.43e-05 ± 1.4e-05 s⁻¹
[2]
  self-cleavage kobs at 10000 uM GlcN6P: 0.00344 ± 0.00044 s⁻¹

## A6G U31G C34G
[1]
  self-cleavage kobs at 40 uM GlcN6P: < 1e-05 s⁻¹
[5]
  self-cleavage kobs at 640 uM GlcN6P: < 1e-05 s⁻¹
[2]
  self-cleavage kobs at 10000 uM GlcN6P: < 1e-05 s⁻¹

## G66A C67A C71U
[3]
  kcat: 0.00289 ± 0.0012 s⁻¹
[1]
  self-cleavage kobs at 40 uM GlcN6P: 6.11e-05 ± 1.7e-05 s⁻¹
[5]
  self-cleavage kobs at 640 uM GlcN6P: 0.000304 ± 6.2e-05 s⁻¹
[6]
  self-cleavage kobs at 2500 uM GlcN6P: 0.00101 ± 0.00048 s⁻¹
[2]
  self-cleavage kobs at 10000 uM GlcN6P: 0.002 ± 0.00029 s⁻¹

## U56C G62A
[7]
  KM: 135 ± 63 µM

## G29U G51U
[7]
  KM: 40.3 ± 12 µM

## A6G G60U
[1]
  self-cleavage kobs at 40 uM GlcN6P: < 1e-05 s⁻¹
[4]
  self-cleavage kobs at 160 uM GlcN6P: < 1e-05 s⁻¹
[5]
  self-cleavage kobs at 640 uM GlcN6P: < 1e-05 s⁻¹

## A6G C16G G66C
[1]
  self-cleavage kobs at 40 uM GlcN6P: < 1e-05 s⁻¹

## A6G C8A C58U
[1]
  self-cleavage kobs at 40 uM GlcN6P: < 1e-05 s⁻¹
[2]
  self-cleavage kobs at 10000 uM GlcN6P: < 1e-05 s⁻¹

## A1U U2G A3G A5U A6C G7C C8A G29C G32U G60U
[1]
  self-cleavage kobs at 40 uM GlcN6P: < 1e-05 s⁻¹

## A6G C11U G32C
[1]
  self-cleavage kobs at 40 uM GlcN6P: < 1e-05 s⁻¹

## A6G A14U U65G
[1]
  self-cleavage kobs at 40 uM GlcN6P: < 1e-05 s⁻¹

## A6C A14C A39G C50A
[1]
  self-cleavage kobs at 40 uM GlcN6P: < 1e-05 s⁻¹

## C67A C71A
[3]
  kcat: 0.000401 ± 8.3e-05 s⁻¹
[1]
  self-cleavage kobs at 40 uM GlcN6P: 4.21e-05 ± 1.2e-05 s⁻¹
[5]
  self-cleavage kobs at 640 uM GlcN6P: 0.00013 ± 4.6e-05 s⁻¹
[6]
  self-cleavage kobs at 2500 uM GlcN6P: 0.000277 ± 4.8e-05 s⁻¹
[2]
  self-cleavage kobs at 10000 uM GlcN6P: 0.000361 ± 4.3e-05 s⁻¹

## A6G A36C G63A
[1]
  self-cleavage kobs at 40 uM GlcN6P: < 1e-05 s⁻¹
[2]
  self-cleavage kobs at 10000 uM GlcN6P: < 1e-05 s⁻¹

## A6U A48C C50U A52U C61U C67G C68G
[1]
  self-cleavage kobs at 40 uM GlcN6P: < 1e-05 s⁻¹

## A6G C61G
[1]
  self-cleavage kobs at 40 uM GlcN6P: < 1e-05 s⁻¹
[4]
  self-cleavage kobs at 160 uM GlcN6P: < 1e-05 s⁻¹
[5]
  self-cleavage kobs at 640 uM GlcN6P: < 1e-05 s⁻¹
[6]
  self-cleavage kobs at 2500 uM GlcN6P: < 1e-05 s⁻¹
[2]
  self-cleavage kobs at 10000 uM GlcN6P: < 1e-05 s⁻¹

## A6G A48U
[1]
  self-cleavage kobs at 40 uM GlcN6P: < 1e-05 s⁻¹
[4]
  self-cleavage kobs at 160 uM GlcN6P: < 1e-05 s⁻¹
[5]
  self-cleavage kobs at 640 uM GlcN6P: < 1e-05 s⁻¹
[6]
  self-cleavage kobs at 2500 uM GlcN6P: < 1e-05 s⁻¹
[2]
  self-cleavage kobs at 10000 uM GlcN6P: < 1e-05 s⁻¹

## G35U G51U
[7]
  KM: 31.5 ± 11 µM

## A42U G59A
[7]
  KM: 145 ± 23 µM

## A6G G41U U57G G59C C71U
[1]
  self-cleavage kobs at 40 uM GlcN6P: < 1e-05 s⁻¹
[4]
  self-cleavage kobs at 160 uM GlcN6P: < 1e-05 s⁻¹
[5]
  self-cleavage kobs at 640 uM GlcN6P: < 1e-05 s⁻¹
[6]
  self-cleavage kobs at 2500 uM GlcN6P: < 1e-05 s⁻¹
[2]
  self-cleavage kobs at 10000 uM GlcN6P: < 1e-05 s⁻¹

## C70U C71U
[3]
  kcat: 0.00193 ± 0.00073 s⁻¹
[7]
  KM: 4150 ± 1900 µM
[1]
  self-cleavage kobs at 40 uM GlcN6P: 3.19e-05 ± 5.6e-06 s⁻¹
[4]
  self-cleavage kobs at 160 uM GlcN6P: 8.1e-05 ± 8.1e-06 s⁻¹
[5]
  self-cleavage kobs at 640 uM GlcN6P: 0.000229 ± 1.8e-05 s⁻¹
[6]
  self-cleavage kobs at 2500 uM GlcN6P: 0.000753 ± 0.00013 s⁻¹
[2]
  self-cleavage kobs at 10000 uM GlcN6P: 0.00146 ± 0.00021 s⁻¹

## A6U A12U U65G
[1]
  self-cleavage kobs at 40 uM GlcN6P: < 1e-05 s⁻¹

## A6C G32A C34U U54G C58U G66A
[1]
  self-cleavage kobs at 40 uM GlcN6P: < 1e-05 s⁻¹
[2]
  self-cleavage kobs at 10000 uM GlcN6P: < 1e-05 s⁻¹

## A1G C34U A52U
[1]
  self-cleavage kobs at 40 uM GlcN6P: < 1e-05 s⁻¹

## A6C G37A
[1]
  self-cleavage kobs at 40 uM GlcN6P: < 1e-05 s⁻¹
[4]
  self-cleavage kobs at 160 uM GlcN6P: < 1e-05 s⁻¹
[6]
  self-cleavage kobs at 2500 uM GlcN6P: < 1e-05 s⁻¹
[2]
  self-cleavage kobs at 10000 uM GlcN6P: < 1e-05 s⁻¹

## A6C G51C
[1]
  self-cleavage kobs at 40 uM GlcN6P: < 1e-05 s⁻¹
[4]
  self-cleavage kobs at 160 uM GlcN6P: < 1e-05 s⁻¹
[5]
  self-cleavage kobs at 640 uM GlcN6P: < 1e-05 s⁻¹
[6]
  self-cleavage kobs at 2500 uM GlcN6P: < 1e-05 s⁻¹
[2]
  self-cleavage kobs at 10000 uM GlcN6P: < 1e-05 s⁻¹

## A6U A36C C50U A64G
[1]
  self-cleavage kobs at 40 uM GlcN6P: < 1e-05 s⁻¹

## A6C G32C G60U
[1]
  self-cleavage kobs at 40 uM GlcN6P: < 1e-05 s⁻¹
[2]
  self-cleavage kobs at 10000 uM GlcN6P: < 1e-05 s⁻¹

## C67G C68G
[3]
  kcat: 4.53e-05 ± 9.2e-06 s⁻¹
[4]
  self-cleavage kobs at 160 uM GlcN6P: 6.2e-05 ± 7.7e-06 s⁻¹
[5]
  self-cleavage kobs at 640 uM GlcN6P: 5.01e-05 ± 6.5e-06 s⁻¹
[6]
  self-cleavage kobs at 2500 uM GlcN6P: 3.7e-05 ± 4.7e-06 s⁻¹

## A6G G63A
[1]
  self-cleavage kobs at 40 uM GlcN6P: < 1e-05 s⁻¹
[4]
  self-cleavage kobs at 160 uM GlcN6P: < 1e-05 s⁻¹
[5]
  self-cleavage kobs at 640 uM GlcN6P: < 1e-05 s⁻¹
[6]
  self-cleavage kobs at 2500 uM GlcN6P: < 1e-05 s⁻¹
[2]
  self-cleavage kobs at 10000 uM GlcN6P: < 1e-05 s⁻¹

## A6C U31G G32A G41U
[1]
  self-cleavage kobs at 40 uM GlcN6P: < 1e-05 s⁻¹

## A6C G13C C68G
[1]
  self-cleavage kobs at 40 uM GlcN6P: < 1e-05 s⁻¹
[6]
  self-cleavage kobs at 2500 uM GlcN6P: < 1e-05 s⁻¹

## unchanged
[3]
  kcat: 0.0712 ± 0.0079 s⁻¹
[7]
  KM: 1990 ± 250 µM
[1]
  self-cleavage kobs at 40 uM GlcN6P: 0.00143 ± 1.7e-05 s⁻¹
[4]
  self-cleavage kobs at 160 uM GlcN6P: 0.00462 ± 0.00025 s⁻¹
[5]
  self-cleavage kobs at 640 uM GlcN6P: 0.016 ± 0.00046 s⁻¹
[6]
  self-cleavage kobs at 2500 uM GlcN6P: 0.0364 ± 0.0015 s⁻¹
[2]
  self-cleavage kobs at 10000 uM GlcN6P: 0.0644 ± 0.0021 s⁻¹

## G66C
[3]
  kcat: 0.000832 ± 7.4e-05 s⁻¹
[7]
  KM: 1470 ± 210 µM
[1]
  self-cleavage kobs at 40 uM GlcN6P: 2.55e-05 ± 1.8e-06 s⁻¹
[4]
  self-cleavage kobs at 160 uM GlcN6P: 8.08e-05 ± 2.4e-06 s⁻¹
[5]
  self-cleavage kobs at 640 uM GlcN6P: 0.000244 ± 6.2e-06 s⁻¹
[6]
  self-cleavage kobs at 2500 uM GlcN6P: 0.000709 ± 3.8e-05 s⁻¹
[2]
  self-cleavage kobs at 10000 uM GlcN6P: 0.000712 ± 1.8e-05 s⁻¹

## G66A
[3]
  kcat: 0.0375 ± 0.011 s⁻¹
[7]
  KM: 2780 ± 890 µM
[1]
  self-cleavage kobs at 40 uM GlcN6P: 0.00059 ± 1.2e-05 s⁻¹
[4]
  self-cleavage kobs at 160 uM GlcN6P: 0.0016 ± 6.7e-05 s⁻¹
[5]
  self-cleavage kobs at 640 uM GlcN6P: 0.00697 ± 0.0004 s⁻¹
[6]
  self-cleavage kobs at 2500 uM GlcN6P: 0.016 ± 0.00099 s⁻¹
[2]
  self-cleavage kobs at 10000 uM GlcN6P: 0.0316 ± 0.0015 s⁻¹
